Test results from patent publication US12202907B2, “Nucleic acids encoding and methods of producing proteins comprising antibody chains” (Innate Pharma, priority 2018, dated 2025).

T1: human Ramos lymphoma cells (CD39) (Homo sapiens, UniProt P49961)
T1 construct: cells that endogenously express CD39 at their surface; host or cells: Ramos
T1 sequence (P49961 1-510): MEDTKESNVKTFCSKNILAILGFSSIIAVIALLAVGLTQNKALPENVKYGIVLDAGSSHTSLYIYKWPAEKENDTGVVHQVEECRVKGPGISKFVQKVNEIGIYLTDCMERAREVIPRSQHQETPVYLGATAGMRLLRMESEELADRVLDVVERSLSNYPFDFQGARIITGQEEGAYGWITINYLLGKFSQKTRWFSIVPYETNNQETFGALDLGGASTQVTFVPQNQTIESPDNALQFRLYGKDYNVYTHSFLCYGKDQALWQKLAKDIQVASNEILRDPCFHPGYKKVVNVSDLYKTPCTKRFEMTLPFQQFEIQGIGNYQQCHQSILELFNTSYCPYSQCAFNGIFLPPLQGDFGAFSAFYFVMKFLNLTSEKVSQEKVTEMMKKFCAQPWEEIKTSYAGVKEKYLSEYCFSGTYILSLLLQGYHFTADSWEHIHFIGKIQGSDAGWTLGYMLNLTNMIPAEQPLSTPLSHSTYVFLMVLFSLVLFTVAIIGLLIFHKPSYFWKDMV

T2: CD39 expressed by Ramos human lymphoma cells (Homo sapiens, UniProt P49961)
T2 construct: cells that endogenously express CD39 at their surface; host or cells: Ramos
T2 sequence (P49961 1-510): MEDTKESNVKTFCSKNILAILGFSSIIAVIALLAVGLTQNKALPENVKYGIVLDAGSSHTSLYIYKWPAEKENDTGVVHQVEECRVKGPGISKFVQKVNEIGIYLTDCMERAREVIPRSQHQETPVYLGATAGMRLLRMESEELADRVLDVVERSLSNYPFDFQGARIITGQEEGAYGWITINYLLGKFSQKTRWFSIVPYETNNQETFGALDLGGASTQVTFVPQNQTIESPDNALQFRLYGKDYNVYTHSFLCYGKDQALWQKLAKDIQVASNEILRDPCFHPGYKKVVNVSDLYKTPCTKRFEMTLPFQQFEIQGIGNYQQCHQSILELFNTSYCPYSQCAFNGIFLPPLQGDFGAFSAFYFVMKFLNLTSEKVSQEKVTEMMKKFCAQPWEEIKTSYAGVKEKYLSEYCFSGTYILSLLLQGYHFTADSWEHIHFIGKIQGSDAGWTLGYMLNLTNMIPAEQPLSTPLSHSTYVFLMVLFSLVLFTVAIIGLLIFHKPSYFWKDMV

T3: soluble recombinant human CD39 protein (Homo sapiens, UniProt P49961)
T3 construct: made in house; host or cells: CHO cells
T3 sequence (P49961 with tags, fused parts or gaps): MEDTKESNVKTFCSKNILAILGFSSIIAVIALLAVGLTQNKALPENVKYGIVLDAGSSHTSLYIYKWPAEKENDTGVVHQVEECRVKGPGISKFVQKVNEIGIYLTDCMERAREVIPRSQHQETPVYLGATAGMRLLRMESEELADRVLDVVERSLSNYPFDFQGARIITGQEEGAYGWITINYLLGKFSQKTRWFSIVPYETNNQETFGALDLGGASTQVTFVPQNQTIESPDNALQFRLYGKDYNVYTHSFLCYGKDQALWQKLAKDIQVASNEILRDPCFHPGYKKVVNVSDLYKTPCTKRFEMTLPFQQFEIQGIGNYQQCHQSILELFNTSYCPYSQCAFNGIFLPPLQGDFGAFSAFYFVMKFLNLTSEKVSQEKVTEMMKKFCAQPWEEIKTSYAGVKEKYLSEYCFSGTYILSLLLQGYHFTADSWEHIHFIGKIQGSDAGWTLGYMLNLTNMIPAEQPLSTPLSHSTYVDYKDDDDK


How the values were obtained:
[1] = Stability in reference formulation (storage, freeze thaw); type: physicochemical; details: about 7 mg/mL, pH 6.0 histidine/sucrose/NaCl/PS80, +5° C. and +40° C., up to 1 month
Description: (§1) Antibodies mAb1-24 and prior art anti-CD39 antibody BY40, all produced as human IgG1 isotypes with L234A/L235E/G237A/A330S/P331S substitutions were tested for stability in the following reference formulation at a concentration of approximatively 7 mg/mL: pH 6.0; histidine buffer (10 mM); sucrose (200 mM); NaCl (50 mM); Polysorbate 80 (PS80) (0.2 g/L). The stability of the formulations was monitored in two storage conditions (at +5° C.±3° C. and at +40±3° C. For each study, 3 time points were performed: T0, T15D (15 days) and T1M (1 month). A freeze thaw (F/T) and a thermal shift stability assay (TSSA) were conducted for the format comparison. To perform F/T cycles, the samples were frozen at least 2 hours at −20° C. and thawed at least 1 hour at room temperature, the F/T cycle is repeated three times and samples are tested 24 h after the last Freeze/Thaw cycle. At each time point, the following tests were performed: • Particulate Matter (MFI) • Visual Inspection (Appearance) • Impurities (SE-HPLC) • Turbidity (400 nm) • Protein Concentration (280 nm) (performed with Nanodrop, Thermo Fisher Scientific Inc.)

[2] = Aggregation temperature (thermal shift stability assay); type: physicochemical; details: human IgG1 with L234A/L235E/G237A/A330S/P331S
Description: as §1

[3] = molecular target: T1, human Ramos lymphoma cells (CD39); experiment: Antibody titration on Ramos cells by flow cytometry; type: binding; details: comparison
Description: Antibody I-394 was tested in two repeated experiments for binding to CHO cells expressing human CD39, CHO cells expressing cynomolgus (Macaca fascicularis) CD39, CHO cells expressing murine CD39, and human Ramos lymphoma cells (ATCC™, reference CRL-1596). Cells were incubated with various concentration of unlabeled anti-CD39 antibody from 30 μg/ml to 5×10^−4 μg/ml, for 30 minutes at 4° C. After washes, cells were incubated with Goat anti-mouse H+L labeled secondary antibody for 30 min at 4° C.

[4] = molecular target: T2, CD39 expressed by Ramos human lymphoma cells; experiment: Inhibition of the enzymatic activity of cellular CD39 in Ramos cells; type: cell-based; details: Ramos cells
Description: The inhibition of the CD39 enzymatic activity in CD39-expressing cells by antibodies was evaluated using Cell Titer GIo™ (Promega, reference G7571) that allows assessment of ATP hydrolysis through use of a reagent that generates a luminescent signal proportional to the amount of ATP present. The assay was thus designed to permit assessment of the inhibition of ATP hydrolyzed by CD39 in the cell culture supernatant. Briefly, 5×10^4 Ramos human lymphoma cells, 5×10^3 human CD39−, cynomolgus CD39—and mouse CD39− expressing CHO cells, were incubated 1 hour at 37° C. with anti-CD39 antibodies from 30 μg/ml to 5×10^−4 μg/ml. Cells were then incubated with 20 μM ATP for 1 additional hour at 37° C. Plates were centrifuged for 2 min at 400 g and 50 μl cell supernatant are transferred in a luminescence microplate (white wells). 50 μl CellTiter-Glo™ Reagent (CTG) was added to the supernatant and emitted light was quantified after a 5 min incubation in the dark using a Enspire™ luminometer. Anti-CD39 antibody efficacy was determined by comparing emitted light in presence of antibody with ATP alone (maximal light emission) and ATP together with cells (minimal light emission).

[5] = molecular target: T3, soluble recombinant human CD39 protein; experiment: Inhibition of the enzymatic activity of soluble CD39 (Cell Titer Glo, cell-free); type: biochemical; details: humanized variants
Description: The inhibition by antibodies of the enzymatic activity of soluble CD39 protein produced was evaluated using Cell Titer GIo™ (Promega, reference G7571) that allows assessment of ATP hydrolysis through use of a reagent that generates a luminescent signal proportional to the amount of ATP present. In this way, inhibition of the soluble-CD39-meidated ATP hydrolysis can be assessed. Briefly, dose ranges of anti-CD39 antibodies from 100 μg/ml to […] were incubated with 400 ng/ml of soluble recombinant human CD39 protein having the amino acid sequence described in the Methods section (SEQ ID NO: 44), for 1 h at 37° C. 20 μM ATP was added to the plates for 30 additional minutes at 37° C. before addition of CTG (Cell Titer Glo) reagent. Emitted light was quantified using an Enspire™ luminometer after a short incubation period of 5 min in the dark. Anti-CD39 antibody efficacy was determined by comparing emitted light in presence of antibody with ATP alone (maximal light emission) and ATP together with soluble CD39 protein (minimal light emission).

Row | binding to Ramos cells relative to I-394 [3] | Molecule | physicochemical stability [1] | Aggregation temperature (TAgg) [2] | potency at blocking CD39 enzymatic activity relative to other antibodies [4] | potency for inhibition of soluble CD39 relative to parental I-394 [5]
1 | best binding | mAb8: humanized I-394 variant, VH H2 (SEQ ID NO: 29), VL L1 (SEQ ID NO: 36) (antibody, V domains shown) VH: QVQLVQSGAEVKKPGASVKVSCKASGYTFTDYNMHWVRQAPGQRLEWMGYIVPLNGGSTFNQKFKGRATITVDTSASTAYMELSSLRSEDTAVYYCARGGTRFAYWGQGTLVTVSS VL: DIVMTQSPDSLAVSLGERATINCRASESVDNFGVSFMYWFQQKPGQPPKLLIYGASNQGSGVPDRFSGSGSGTDFTLTISSLQAEDVAVYYCQQTKEVPYTFGGGTKVEIK | good physicochemical stability | ~70 °C | – | –
2 | – | mAb23: humanized I-394 variant, VH H4* (SEQ ID NO: 34), VL L1 (SEQ ID NO: 36) (antibody, V domains shown) VH: QVQLVQSGAEVKKPGASVKVSCKASGYTFTDYNMHWVRQAPGQRLEWIGYIVPLNGGSTFSQKFQGRATITVDTSARTAYMELSSLRSEDTAVYYCARGGTRFAYWGQGTLVTVSS VL: DIVMTQSPDSLAVSLGERATINCRASESVDNFGVSFMYWFQQKPGQPPKLLIYGASNQGSGVPDRFSGSGSGTDFTLTISSLQAEDVAVYYCQQTKEVPYTFGGGTKVEIK | – | – | slightly lower potency than mAb20 and mAb21 | –
3 | – | mAb15: humanized I-394 variant, VH H3 (SEQ ID NO: 30), VL L1* (SEQ ID NO: 37) (antibody, V domains shown) VH: QVQLVQSGAEVKKPGASVKVSCKASGYTFTDYNMHWVRQAPGQRLEWIGYIVPLNGGSTFNQKFKGRATITVDTSASTAYMELSSLRSEDTAVYYCARGGTRFAYWGQGTLVTVSS VL: DIVMTQSPDSLAVSLGERATINCKASESVDNFGVSFMYWFQQKPGQPPKLLIYGASNQGSGVPDRFSGSGSGTDFTLTISSLQAEDVAVYYCQQTKEVPYTFGGGTKVEIK | – | – | – | comparable to the parental I-394 antibody
4 | – | mAb14: humanized I-394 variant, VH H3 (SEQ ID NO: 30), VL L1 (SEQ ID NO: 36) (antibody, V domains shown) VH: QVQLVQSGAEVKKPGASVKVSCKASGYTFTDYNMHWVRQAPGQRLEWIGYIVPLNGGSTFNQKFKGRATITVDTSASTAYMELSSLRSEDTAVYYCARGGTRFAYWGQGTLVTVSS VL: DIVMTQSPDSLAVSLGERATINCRASESVDNFGVSFMYWFQQKPGQPPKLLIYGASNQGSGVPDRFSGSGSGTDFTLTISSLQAEDVAVYYCQQTKEVPYTFGGGTKVEIK | – | – | – | comparable to the parental I-394 antibody
5 | best binding | mAb9: humanized I-394 variant, VH H2 (SEQ ID NO: 29), VL L1* (SEQ ID NO: 37) (antibody, V domains shown) VH: QVQLVQSGAEVKKPGASVKVSCKASGYTFTDYNMHWVRQAPGQRLEWMGYIVPLNGGSTFNQKFKGRATITVDTSASTAYMELSSLRSEDTAVYYCARGGTRFAYWGQGTLVTVSS VL: DIVMTQSPDSLAVSLGERATINCKASESVDNFGVSFMYWFQQKPGQPPKLLIYGASNQGSGVPDRFSGSGSGTDFTLTISSLQAEDVAVYYCQQTKEVPYTFGGGTKVEIK | good physicochemical stability | ~70 °C | – | –
6 | – | mAb24: humanized I-394 variant, VH H4* (SEQ ID NO: 34), VL L1* (SEQ ID NO: 37) (antibody, V domains shown) VH: QVQLVQSGAEVKKPGASVKVSCKASGYTFTDYNMHWVRQAPGQRLEWIGYIVPLNGGSTFSQKFQGRATITVDTSARTAYMELSSLRSEDTAVYYCARGGTRFAYWGQGTLVTVSS VL: DIVMTQSPDSLAVSLGERATINCKASESVDNFGVSFMYWFQQKPGQPPKLLIYGASNQGSGVPDRFSGSGSGTDFTLTISSLQAEDVAVYYCQQTKEVPYTFGGGTKVEIK | – | – | slightly lower potency than mAb20 and mAb21 | –
